B1: 301 (protein)
chain: MGHHHHHHGGSVSDVPRDLEVVAATPTSLLISWEYKVHPYRYYRITYGETGGNSPVQEFTVPSVLSTATISGLKPGVDYTITVYAVTHGDDFAPISINYRTEMLI
modifications: Adnectin
B2: 115 (protein)
chain: MGVSDVPRDLEVVAATPTSLLISWEYKVNNYRYYRITYGETGGNSPVQEFTVPSVLSTATISGLKPGVDYTITVYAVTYGVHSSPISINYRTEIDKPSQHHHHHH
modifications: Adnectin
B3: 279 (protein)
chain: MGHHHHHHGGSVSDVPRDLEVVAATPTSLLISWEYKVDHQRYYRITYGETGGNSPVQEFTVPSVLSTATISGLKPGVDYTITVYAVTYGDDSAPISINYRTEID
modifications: Adnectin
B4: 299 (protein)
chain: MGHHHHHHGGSVSDVPRDLEVVAATPTSLLISWKYKVHPYRYYRITYGETGGNSPVQEFTVPSVLSTATISGLKPGVDYTITVYAVTYGDDSAPISINYRTEID
modifications: Adnectin
B5: 285 (protein)
chain: MGHHHHHHGGSVSDVPRDLEVVAATPTSLLISWEYKVHPYRYYRITYGETGGNSPVQEFTVPSVLSSATLRGLKPGVDYTITVYAVTYGDDSAPISINYRTEID
modifications: Adnectin
B6: 286 (protein)
chain: MGHHHHHHGGSVSDVPRDLEVVAATPTSLLISWEYKVAAWRYYRITYGETGGNSPVQEFTVPSVLSTATISGLKPGVDYTITVYAVTYGDDSAPISINYRTEID
modifications: Adnectin
B7: 130 (protein)
chain: MGHHHHHHGGSVSDVPRDLEVVAATPTSLLISWEYNVHYDRYYRITYGETGGNSPVQEFTVPSVLSTATISGLKPGVDYTITVYAVTDGVHSSPISINYRTEID
modifications: Adnectin
B8: 284 (protein)
chain: MGHHHHHHGGSVSDVPRDLEVVAATPTSLLISWEYKVHPYRYYRITYGETGGNSPVQEFTVPSVLSTATISGLKPGVDYTITVYAVTSGDDSAPISINYRTEID
modifications: Adnectin
B9: 296 (protein)
chain: MGHHHHHHGGSVSDVPRDLEVVAATPTSLLISWEYKVATYRYYRITYGETGGNSPVQEFTVPSVLSTATISGLKPGVDYTITVYAVTYGDDSAPISINYRTEID
modifications: Adnectin
B10: 295 (protein)
chain: MGHHHHHHGGSVSDVPRDLEVVAATPTSLLISWEYKVAAYRYYRITYGETGGNSPVQEFTVPSVLSTATISGLKPGVDYTITVYAVTYGDDSAPISINYRTEID
modifications: Adnectin
B11: 291 (protein)
chain: MGHHHHHHGGSVSDVPRDLEVVAATPTSLLISWEYKVHPYRYYRITYGETGGNSPVQEFTVPSVLSTATISGLKPGVDYTITVYAVTGGDDSAPISINYRTEID
modifications: Adnectin
B12: 293 (protein)
chain: MGHHHHHHGGSVSDVPRDLEVVAATPTSLLISWEYKVHPYRYYRITYGETGGNSPVQEFTVPSVLSTATLRGLKPGVDYTITVYAVTYGDDSAPISINYRTEID
modifications: Adnectin
B13: 283 (protein)
chain: MGHHHHHHGGSVSDVPRDLEVVAATPTSLLISWEYKVHPYRYYRITYGETGGNSPVQEFTVPSVLSTATISGLKPGVDYTITVYAVTDGDDSAPISINYRTEID
modifications: Adnectin
B14: 292 (protein)
chain: MGHHHHHHGGSVSDVPRDLEVVAATPTSLLISWEYKVHPYRYYRITYGETGGNSPVQEFTVPSVLSTATIHGLKPGVDYTITVYAVTYGDDSAPISINYRTEID
modifications: Adnectin
B15: 294 (protein)
chain: MGHHHHHHGGSVSDVPRDLEVVAATPTSLLISWEYKVHPYRYYRITYGETGGNSPVQEFTVPSVLSSATISGLKPGVDYTITVYAVTYGDDSAPISINYRTEID
modifications: Adnectin
B16: 281 (protein)
chain: MGHHHHHHGGSVSDVPRDLEVVAATPTSLLISWKYGVHPYRYYRITYGETGGNSPVQEFTVPSVLSTATISGLKPGVDYTITVYAVTYGDDSAPISINYRTEID
modifications: Adnectin
B17: 131 (protein)
chain: MGHHHHHHGGSVSDVPRDLEVVAATPTSLLISWEYKVHPYRYYRITYGETGGNSPVQEFTVPSVLSTATISGLKPGVDYTITVYAVTYGDLSAPISINYRTEID
modifications: Adnectin
B18: 287 (protein)
chain: MGHHHHHHGGSVSDVPRDLEVVAATPTSLLISWEYKVATWRYYRITYGETGGNSPVQEFTVPSVLSTATISGLKPGVDYTITVYAVTYGDDSAPISINYRTEID
modifications: Adnectin
B19: 282 (protein)
chain: MGHHHHHHGGSVSDVPRDLEVVAATPTSLLISWEYSVHPYRYYRITYGETGGNSPVQEFTVPSVLSTATISGLKPGVDYTITVYAVTYGDDSAPISINYRTEID
modifications: Adnectin
B20: 280 (protein)
chain: MGHHHHHHGGSVSDVPRDLEVVAATPTSLLISWEYKVDYGRYYRITYGETGGNSPVQEFTVPSVLSTATISGLKPGVDYTITVYAVTYGDDSAPISINYRTEID
modifications: Adnectin
B21: 288 (protein)
chain: MGHHHHHHGGSVSDVPRDLEVVAATTTSLLISWEYKVDYHRYYRITYGETGGNSPVQEFTVPSVLSTATISGLKPGVDYTITVYAVTYGDDSAPISINYRTEID
modifications: Adnectin
B22: 289 (protein)
chain: MGHHHHHHGGSVSDVPRDLEVVAATPTSLLISWEYGVHPYRYYRITYGETGGNSPVQEFTVPSVLSTATISGLKPGVDYTITVYAVTYGDDSAPISINYRTEID
modifications: Adnectin
B23: 297 (protein)
chain: MGHHHHHHGGSVSDVPRDLEVVAATPTSLLISWEYKVDPWRYYRITYGETGGNSPVQEFTVPSVLSTATISGLKPGVDYTITVYAVTYGDDSAPISINYRTEID
modifications: Adnectin
B24: 298 (protein)
chain: MGHHHHHHGGSVSDVPRDLEVVAATPTSLLISWEYKVDYQRYYRITYGETGGNSPVQEFTVPSVLSTATISGLKPGVDYTITVYAVTYGDDSAPISINYRTEID
modifications: Adnectin
B25: 132 (protein)
chain: MGHHHHHHGGSVSDVPRDLEVVAATPTSLLISWDAPAVTVEEYYIGYYVEFEPSSYQWFTVPGSKSTATISGLKPGVEYSIYVNAVTGMGMQPEMSLPISINYRTEGS
modifications: Adnectin

system: NL-Rluc virus; experiment: Combinectin potency assay: antiviral EC50, NL-Rluc virus in MT-2 cells, luciferase readout; assay type: cell-based, HIV-1; conditions: Anti-N17 Adnectin, Table 3
Procedure, shortened: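 MT-2 cells infected with replication-competent NL-Rluc HIV (nef replaced by Renilla luciferase) at MOI 0.01 for 1 h, then added to threefold-diluted peptides (11 concentrations, triplicate). After 4–5 days, luciferase measured by Dual Luciferase; EC50 relative to no-peptide wells.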

Molecule | EC50 [nM]
B1 | > 1000
B2 | 130
B3 | > 1000
B4 | > 1000
B5 | 397
B6 | > 1000
B7 | 42
B8 | > 1000
B9 | > 1000
B10 | > 1000
B11 | > 1000
B12 | > 1000
B13 | > 1000
B14 | 52
B15 | 101
B16 | > 1000
B17 | 5
B18 | > 1000
B19 | 56
B20 | > 1000
B21 | > 1000
B22 | > 1000
B23 | 30
B24 | > 1000
B25 | 5
